Reference: PMC10344929, “Crosstalk between regulatory elements in disordered TRPV4 N-terminus modulates lipid-dependent channel activity” (Nature Communications, 2023)

Target: T1, Gallus gallus TRPV4 isolated ankyrin repeat domain (residues 135-382) (Gallus gallus, UniProt A0A1D5PXA5 135-382)
T1 construct: TRPV4, Gallus gallus, ankyrin repeat domain, residues 135-382; Made from the NTD vector by Gibson deletion; also called ARD; TRPV4 ARD; source: E. coli BL21-Gold(DE3), purified (Ni-NTA, Ulp-1 cleavage, reverse Ni-NTA, SEC); not shown: His6SUMO, N-terminal, cleaved
Experiment: cross-linking; DSS-H12/D12 cross-linking mass spectrometry; isolated IDR and ARD mixed 1:1; 1.5 nmol DSS per ug protein, 2 h at 4 °C, 1 mg/mL protein, 20 mM HEPES pH 7, 300 mM NaCl
Settings: both partners purified

T1 sequence (A0A1D5PXA5 135-382): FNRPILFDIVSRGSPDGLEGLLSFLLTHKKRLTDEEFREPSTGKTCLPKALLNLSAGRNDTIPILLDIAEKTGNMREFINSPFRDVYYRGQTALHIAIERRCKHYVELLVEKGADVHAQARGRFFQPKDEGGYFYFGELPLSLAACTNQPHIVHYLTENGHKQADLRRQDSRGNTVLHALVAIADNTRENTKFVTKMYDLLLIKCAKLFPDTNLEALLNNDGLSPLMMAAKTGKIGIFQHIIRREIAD

B1: Gallus gallus TRPV4 isolated intrinsically disordered region (residues 2-134) (domain or fragment, UniProt A0A1D5PXA5 2-134, looked up)
chain: ADPEDPRDAGDVLGDDSFPLSSLANLFEVEDTPSPAEPSRGPPGAVDGKQNLRMKFHGAFRKGPPKPMELLESTIYESSVVPAPKKAPMDSLFDYGTYRQHPSENKRWRRRVVEKPVAGTKGPAPNPPPILKV
notes: TRPV4, Gallus gallus, N-terminal intrinsically disordered region, residues 2-134; Made from the NTD vector by Gibson deletion; also called IDR; TRPV4 IDR; source: E. coli BL21-Gold(DE3), purified (Ni-NTA, Ulp-1 cleavage, reverse Ni-NTA, SEC); not shown: His6SUMO, N-terminal, cleaved
Does B1 bind?
Result: binds
